Data from patent US20210196796A1 (SYNTHEKINE, published 2021).
Residue numbers refer to the chain shown, from its start. Names may count otherwise.

T1: orthogonal hCD122 receptor (hoRb), hCD122 with H133D and Y134F (human, UniProt P14784 27-550)
T1 sequence: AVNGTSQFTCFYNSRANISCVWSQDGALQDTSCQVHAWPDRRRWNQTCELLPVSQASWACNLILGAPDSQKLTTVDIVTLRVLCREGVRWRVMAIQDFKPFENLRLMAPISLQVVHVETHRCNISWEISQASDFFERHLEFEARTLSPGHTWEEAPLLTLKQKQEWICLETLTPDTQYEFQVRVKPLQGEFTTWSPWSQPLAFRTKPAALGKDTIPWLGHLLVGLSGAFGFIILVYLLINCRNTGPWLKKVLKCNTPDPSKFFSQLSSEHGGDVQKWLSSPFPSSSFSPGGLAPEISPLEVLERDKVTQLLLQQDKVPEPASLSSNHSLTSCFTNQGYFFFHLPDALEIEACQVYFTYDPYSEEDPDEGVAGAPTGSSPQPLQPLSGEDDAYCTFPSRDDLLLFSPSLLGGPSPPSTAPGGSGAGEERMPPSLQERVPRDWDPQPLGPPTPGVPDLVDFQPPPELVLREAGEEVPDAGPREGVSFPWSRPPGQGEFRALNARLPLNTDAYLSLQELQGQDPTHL

B1: ΔG27, SQVLKA (ligand)
chain: APTSSSTKKTQLQLSQLLVLLKAILNINNYKNPKLTRMLTFKFYMPKKATELKHLQCLEEELKPLEEVLNLAQSKNFHLRPRDLISNINVIVLELKGSETTFMCEYADETATIVEFLNRWITFCQSIISTLT
B2: ΔT51, SQVLKA (ligand)
chain: APTSSSTKKTQLQLSQLLVLLKAILNGINNYKNPKLTRMLTFKFYMPKKAELKHLQCLEEELKPLEEVLNLAQSKNFHLRPRDLISNINVIVLELKGSETTFMCEYADETATIVEFLNRWITFCQSIISTLT
B3: ΔQ13, SQVLKA (ligand)
chain: APTSSSTKKTQLLSQLLVLLKAILNGINNYKNPKLTRMLTFKFYMPKKATELKHLQCLEEELKPLEEVLNLAQSKNFHLRPRDLISNINVIVLELKGSETTFMCEYADETATIVEFLNRWITFCQSIISTLT
B4: SQVLKV (ligand)
chain: APTSSSTKKTQLQLSQLLVLLKVILNGINNYKNPKLTRMLTFKFYMPKKATELKHLQCLEEELKPLEEVLNLAQSKNFHLRPRDLISNINVIVLELKGSETTFMCEYADETATIVEFLNRWITFCQSIISTLT
B5: F42K, SQVLKA (ligand)
chain: B4 chain with V23A, F42K
B6: G27S, SQVLKA (ligand)
chain: B4 chain with V23A, G27S
B7: M39V, SQVLKA (ligand)
chain: B4 chain with V23A, M39V
B8: M39L, SQVLKA (ligand)
chain: B4 chain with V23A, M39L
B9: SQVLKL (ligand)
chain: B4 chain with V23L
B10: R38G, SQVLKA (ligand)
chain: B4 chain with V23A, R38G
B11: R38W, SQVLKA (ligand)
chain: B4 chain with V23A, R38W
B12: SQVLKT (ligand)
chain: B4 chain with V23T
B13: G27K, SQVLKA (ligand)
chain: B4 chain with V23A, G27K
For Relative Proliferation Fold Change 3F8 1:10 in this document: reference of the scale not given here.
For Relative Proliferation Fold Change 3F8 1:2 in this document: reference of the scale not given here.
For Relative Proliferation Fold Change 3F8 1:50 in this document: reference of the scale not given here.
For Relative Proliferation Fold Change NKL 1:10 in this document: reference of the scale not given here.
For Relative Proliferation Fold Change NKL 1:2 in this document: reference of the scale not given here.
For Relative Proliferation Fold Change NKL 1:50 in this document: reference of the scale not given here.

These binders were tested against T1, orthogonal hCD122 receptor (hoRb), … (assay: cell-based or functional assay).
B1 was tested, and the “NKL Ortho Proliferation Signal 1:2” value was 46600, the “NKL Ortho Proliferation Signal 1:10” value was 31400 and the “NKL Ortho Proliferation Signal 1:50” value was 14600. The “Relative Proliferation Fold Change NKL 1:2” value was 3.29 fold, the “Relative Proliferation Fold Change NKL 1:10” value was 2.05 fold and the “Relative Proliferation Fold Change NKL 1:50” value was 1.04 fold. B2 was tested, and the “NKL Ortho Proliferation Signal 1:2” value was 12100, the “NKL Ortho Proliferation Signal 1:10” value was 10100 and the “NKL Ortho Proliferation Signal 1:50” value was 7780. The “Relative Proliferation Fold Change NKL 1:2” value was 1 fold, the “Relative Proliferation Fold Change NKL 1:10” value was 0.71 fold and the “Relative Proliferation Fold Change NKL 1:50” value was 0.58 fold. In the case of B3, the “NKL Ortho Proliferation Signal 1:2” value is reported as 26700, the “NKL Ortho Proliferation Signal 1:10” value is reported as 20700 and the “NKL Ortho Proliferation Signal 1:50” value is reported as 11800. For the same binder, the “Relative Proliferation Fold Change NKL 1:2” value was 2.06 fold, the “Relative Proliferation Fold Change NKL 1:10” value was 1.39 fold and the “Relative Proliferation Fold Change NKL 1:50” value was 0.79 fold. With B4 the “NKL Ortho Proliferation Signal 1:2” value was 63400, the “NKL Ortho Proliferation Signal 1:10” value was 66100 and the “NKL Ortho Proliferation Signal 1:50” value was 29900. For the same binder, the “Relative Proliferation Fold Change NKL 1:2” value was 4.61 fold, the “Relative Proliferation Fold Change NKL 1:10” value was 4.15 fold and the “Relative Proliferation Fold Change NKL 1:50” value was 2 fold. In the case of B5, the “NKL Ortho Proliferation Signal 1:2” value is reported as 11900, the “NKL Ortho Proliferation Signal 1:10” value is reported as 10500 and the “NKL Ortho Proliferation Signal 1:50” value is reported as 8730. For the same binder, the “Relative Proliferation Fold Change NKL 1:2” value was 0.83 fold, the “Relative Proliferation Fold Change NKL 1:10” value was 0.6 fold and the “Relative Proliferation Fold Change NKL 1:50” value was 0.52 fold. For B6, the “NKL Ortho Proliferation Signal 1:2” value was 48900, the “NKL Ortho Proliferation Signal 1:10” value was 41000 and the “NKL Ortho Proliferation Signal 1:50” value was 20700. The “Relative Proliferation Fold Change NKL 1:2” value was 4.21 fold, the “Relative Proliferation Fold Change NKL 1:10” value was 2.94 fold and the “Relative Proliferation Fold Change NKL 1:50” value was 1.53 fold. B7 was tested, and the “NKL Ortho Proliferation Signal 1:2” value was 42800, the “NKL Ortho Proliferation Signal 1:10” value was 31300 and the “NKL Ortho Proliferation Signal 1:50” value was 15300. The “Relative Proliferation Fold Change NKL 1:2” value was 2.72 fold, the “Relative Proliferation Fold Change NKL 1:10” value was 1.85 fold and the “Relative Proliferation Fold Change NKL 1:50” value was 0.92 fold. With B8 the “NKL Ortho Proliferation Signal 1:2” value was 57600, the “NKL Ortho Proliferation Signal 1:10” value was 44100 and the “NKL Ortho Proliferation Signal 1:50” value was 21800. For the same binder, the “Relative Proliferation Fold Change NKL 1:2” value was 4.47 fold, the “Relative Proliferation Fold Change NKL 1:10” value was 2.84 fold and the “Relative Proliferation Fold Change NKL 1:50” value was 1.49 fold. For B9, the “NKL Ortho Proliferation Signal 1:2” value was 59700, the “NKL Ortho Proliferation Signal 1:10” value was 67100 and the “NKL Ortho Proliferation Signal 1:50” value was 32700. For the same binder, the “Relative Proliferation Fold Change NKL 1:2” value was 4.69 fold, the “Relative Proliferation Fold Change NKL 1:10” value was 4.38 fold and the “Relative Proliferation Fold Change NKL 1:50” value was 2.26 fold. B10 was tested, and the “NKL Ortho Proliferation Signal 1:2” value was 20100, the “NKL Ortho Proliferation Signal 1:10” value was 18100 and the “NKL Ortho Proliferation Signal 1:50” value was 9740. For the same binder, the “Relative Proliferation Fold Change NKL 1:2” value was 1.78 fold, the “Relative Proliferation Fold Change NKL 1:10” value was 1.19 fold and the “Relative Proliferation Fold Change NKL 1:50” value was 0.67 fold. In the case of B11, the “NKL Ortho Proliferation Signal 1:2” value is reported as 36700, the “NKL Ortho Proliferation Signal 1:10” value is reported as 23800 and the “NKL Ortho Proliferation Signal 1:50” value is reported as 11500. For the same binder, the “Relative Proliferation Fold Change NKL 1:2” value was 2.74 fold, the “Relative Proliferation Fold Change NKL 1:10” value was 1.51 fold and the “Relative Proliferation Fold Change NKL 1:50” value was 0.77 fold. B12 was tested, and the “NKL Ortho Proliferation Signal 1:2” value was 61400, the “NKL Ortho Proliferation Signal 1:10” value was 63400 and the “NKL Ortho Proliferation Signal 1:50” value was 33400. For the same binder, the “Relative Proliferation Fold Change NKL 1:2” value was 4.68 fold, the “Relative Proliferation Fold Change NKL 1:10” value was 4.52 fold and the “Relative Proliferation Fold Change NKL 1:50” value was 2.5 fold. B13 was tested, and the “NKL Ortho Proliferation Signal 1:2” value was 36300, the “NKL Ortho Proliferation Signal 1:10” value was 30600 and the “NKL Ortho Proliferation Signal 1:50” value was 15200. The “Relative Proliferation Fold Change NKL 1:2” value was 2.93 fold, the “Relative Proliferation Fold Change NKL 1:10” value was 1.94 fold and the “Relative Proliferation Fold Change NKL 1:50” value was 1.03 fold.

Target: T1, orthogonal hCD122 receptor (hoRb), …
Experiment: cell-based or functional assay
Remark: another data set of the same source
For B1, the “3F8 Ortho Proliferation Signal 1:2” value was 28400 cts/min, the “3F8 Ortho Proliferation Signal 1:10” value was 21900 cts/min and the “3F8 Ortho Proliferation Signal 1:50” value was 6730 cts/min. The “Relative Proliferation Fold Change 3F8 1:2” value was 105 fold, the “Relative Proliferation Fold Change 3F8 1:10” value was 30.4 fold and the “Relative Proliferation Fold Change 3F8 1:50” value was 10.2 fold. For B2, the “3F8 Ortho Proliferation Signal 1:2” value was 9940 cts/min, the “3F8 Ortho Proliferation Signal 1:10” value was 7070 cts/min and the “3F8 Ortho Proliferation Signal 1:50” value was 1060 cts/min. The “Relative Proliferation Fold Change 3F8 1:2” value was 59.1 fold, the “Relative Proliferation Fold Change 3F8 1:10” value was 8.73 fold and the “Relative Proliferation Fold Change 3F8 1:50” value was 2.17 fold. With B3 the “3F8 Ortho Proliferation Signal 1:2” value was 37600 cts/min, the “3F8 Ortho Proliferation Signal 1:10” value was 26100 cts/min and the “3F8 Ortho Proliferation Signal 1:50” value was 12400 cts/min. For the same binder, the “Relative Proliferation Fold Change 3F8 1:2” value was 102 fold, the “Relative Proliferation Fold Change 3F8 1:10” value was 23.7 fold and the “Relative Proliferation Fold Change 3F8 1:50” value was 7.63 fold. B4 was tested, and the “3F8 Ortho Proliferation Signal 1:2” value was 45300 cts/min, the “3F8 Ortho Proliferation Signal 1:10” value was 53000 cts/min and the “3F8 Ortho Proliferation Signal 1:50” value was 21000 cts/min. For the same binder, the “Relative Proliferation Fold Change 3F8 1:2” value was 36.1 fold, the “Relative Proliferation Fold Change 3F8 1:10” value was 29.1 fold and the “Relative Proliferation Fold Change 3F8 1:50” value was 20.8 fold. B5 was tested, and the “3F8 Ortho Proliferation Signal 1:2” value was 10300 cts/min, the “3F8 Ortho Proliferation Signal 1:10” value was 5760 cts/min and the “3F8 Ortho Proliferation Signal 1:50” value was 1570 cts/min. For the same binder, the “Relative Proliferation Fold Change 3F8 1:2” value was 43.5 fold, the “Relative Proliferation Fold Change 3F8 1:10” value was 12.7 fold and the “Relative Proliferation Fold Change 3F8 1:50” value was 2.2 fold. With B6 the “3F8 Ortho Proliferation Signal 1:2” value was 40200 cts/min, the “3F8 Ortho Proliferation Signal 1:10” value was 34700 cts/min and the “3F8 Ortho Proliferation Signal 1:50” value was 15200 cts/min. For the same binder, the “Relative Proliferation Fold Change 3F8 1:2” value was 94 fold, the “Relative Proliferation Fold Change 3F8 1:10” value was 33 fold and the “Relative Proliferation Fold Change 3F8 1:50” value was 24.6 fold. B7 was tested, and the “3F8 Ortho Proliferation Signal 1:2” value was 29200 cts/min, the “3F8 Ortho Proliferation Signal 1:10” value was 22900 cts/min and the “3F8 Ortho Proliferation Signal 1:50” value was 9630 cts/min. The “Relative Proliferation Fold Change 3F8 1:2” value was 110 fold, the “Relative Proliferation Fold Change 3F8 1:10” value was 51.3 fold and the “Relative Proliferation Fold Change 3F8 1:50” value was 16.7 fold. For B8, the “3F8 Ortho Proliferation Signal 1:2” value was 31200 cts/min, the “3F8 Ortho Proliferation Signal 1:10” value was 24600 cts/min and the “3F8 Ortho Proliferation Signal 1:50” value was 12200 cts/min. The “Relative Proliferation Fold Change 3F8 1:2” value was 179 fold, the “Relative Proliferation Fold Change 3F8 1:10” value was 76.7 fold and the “Relative Proliferation Fold Change 3F8 1:50” value was 37.1 fold. B9 was tested, and the “3F8 Ortho Proliferation Signal 1:2” value was 40200 cts/min, the “3F8 Ortho Proliferation Signal 1:10” value was 37000 cts/min and the “3F8 Ortho Proliferation Signal 1:50” value was 8930 cts/min. For the same binder, the “Relative Proliferation Fold Change 3F8 1:2” value was 43 fold, the “Relative Proliferation Fold Change 3F8 1:10” value was 15.3 fold and the “Relative Proliferation Fold Change 3F8 1:50” value was 5.43 fold. With B10 the “3F8 Ortho Proliferation Signal 1:2” value was 27200 cts/min, the “3F8 Ortho Proliferation Signal 1:10” value was 32100 cts/min and the “3F8 Ortho Proliferation Signal 1:50” value was 14200 cts/min. The “Relative Proliferation Fold Change 3F8 1:2” value was 47.5 fold, the “Relative Proliferation Fold Change 3F8 1:10” value was 21.6 fold and the “Relative Proliferation Fold Change 3F8 1:50” value was 8.42 fold. In the case of B11, the “3F8 Ortho Proliferation Signal 1:2” value is reported as 40400 cts/min, the “3F8 Ortho Proliferation Signal 1:10” value is reported as 41100 cts/min and the “3F8 Ortho Proliferation Signal 1:50” value is reported as 24200 cts/min. The “Relative Proliferation Fold Change 3F8 1:2” value was 94.4 fold, the “Relative Proliferation Fold Change 3F8 1:10” value was 57.3 fold and the “Relative Proliferation Fold Change 3F8 1:50” value was 21.4 fold. In the case of B12, the “3F8 Ortho Proliferation Signal 1:2” value is reported as 46400 cts/min, the “3F8 Ortho Proliferation Signal 1:10” value is reported as 54400 cts/min and the “3F8 Ortho Proliferation Signal 1:50” value is reported as 28500 cts/min. The “Relative Proliferation Fold Change 3F8 1:2” value was 22.9 fold, the “Relative Proliferation Fold Change 3F8 1:10” value was 54.9 fold and the “Relative Proliferation Fold Change 3F8 1:50” value was 37.8 fold. For B13, the “3F8 Ortho Proliferation Signal 1:2” value was 37800 cts/min, the “3F8 Ortho Proliferation Signal 1:10” value was 23700 cts/min and the “3F8 Ortho Proliferation Signal 1:50” value was 10300 cts/min. For the same binder, the “Relative Proliferation Fold Change 3F8 1:2” value was 170 fold, the “Relative Proliferation Fold Change 3F8 1:10” value was 47.9 fold and the “Relative Proliferation Fold Change 3F8 1:50” value was 7.82 fold.
